# B1: Hammerhead Ribozyme (parent)
# chain: ACCGGAUGUGCUUUCCGGUCUGAUGAGUCCGUGAGGACGAAACAG
# Variants of: B1
# Test: self-cleavage, relative activity (ratio to wild type); higher = more cleavage; co-transcriptional
row,Variant,self-cleavage
1,ACCGGAUGUGGUUUCCGGUCUGAUGACUCCGUGAGGACGAAACAG,0.938
2,ACCGGAUGUGGUUUCCGGUCUGAUGAUUCCGUGAGGACGAAACAG,0.527
3,ACCGGAUGUGGUUUCCGGUCUGAUGAGUCCAUGAGGACGAAACAG,1.03
4,ACCGGAUGUGGUUUCCGGUCUGAUGAGUCCCUGAGGACGAAACAG,0.83
5,ACCGGAUGUGGUUUCCGGUCUGAUGAGUCCUUGAGGACGAAACAG,1.34
6,ACCGGAUGUGGUUUCCGGUCUGAUGAGUCCGUAAGGACGAAACAG,1.11
7,ACCGGAUGUGGUUUCCGGUCUGAUGAGUCCGUCAGGACGAAACAG,1
8,ACCGGAUGUGGUUUCCGGUCUGAUGAGUCCGUUAGGACGAAACAG,1.53
9,ACCGGAUGUGGUUUCCGGUCUGAUGAGUCCGUGAAGACGAAACAG,1.02
10,ACCGGAUGUGGUUUCCGGUCUGAUGAGUCCGUGACGACGAAACAG,0.668
11,ACCGGAUGUGGUUUCCGGUCUGAUGAGUCCGUGAUGACGAAACAG,0.957
12,ACCGGAUGUGGUUUCCGGUCUGAUGAGUCCGUGAGAACGAAACAG,0.763
13,ACCGGAUGUGGUUUCCGGUCUGAUGAGUCCGUGAGCACGAAACAG,0.998
14,ACCGGAUGUGGUUUCCGGUCUGAUGAGUCCGUGAGUACGAAACAG,0.69
15,ACCGGAUGUGGUUUCCGGUCUGAUGAGUCCGUGAGGACAAAACAG,0.253
16,ACCGGAUGUGGUUUCCGGUCUGAUGAGUCCGUGAGGACCAAACAG,0.541
17,ACCGGAUGUGGUUUCCGGUCUGAUGAGUCCGUGAGGACUAAACAG,0.301
18,ACCGGAUGUGGUUUCCGGUCUGAUGAGUCCGUGAGGACGAAACAA,0.626
19,ACCGGAUGUGGUUUCCGGUCUGAUGAGUCCGUGAGGACGAAACAC,0.962

row,Variant,self-cleavage
1,ACCGGAUGUGGUUUCCGGUCUGAUGAGUCCGUGAGGACGAAACAU,0.928
2,ACCGGAUGUGGAUUCCGGUCUGAUGAGUCCGUGAGGACGAAACAG,1.1
3,ACCGGAUGUGGCUUCCGGUCUGAUGAGUCCGUGAGGACGAAACAG,1.07
4,ACCGGAUGUGGGUUCCGGUCUGAUGAGUCCGUGAGGACGAAACAG,1.17
5,ACCGGAUGUGGUAUCCGGUCUGAUGAGUCCGUGAGGACGAAACAG,1.21
6,ACCGGAUGUGGUCUCCGGUCUGAUGAGUCCGUGAGGACGAAACAG,1.32
7,ACCGGAUGUGGUGUCCGGUCUGAUGAGUCCGUGAGGACGAAACAG,1.11
8,ACCGGAUGUGGUUACCGGUCUGAUGAGUCCGUGAGGACGAAACAG,1.25
9,ACCGGAUGUGGUUCCCGGUCUGAUGAGUCCGUGAGGACGAAACAG,0.867
10,ACCGGAUGUGGUUGCCGGUCUGAUGAGUCCGUGAGGACGAAACAG,0.74
11,ACCGGAUGUGGUUUCCGGACUGAUGAGUCCGUGAGGACGAAACAG,0.296
12,ACCGGAUGUGGUUUCCGGCCUGAUGAGUCCGUGAGGACGAAACAG,0.532
13,ACCGGAUGUGGUUUCCGGGCUGAUGAGUCCGUGAGGACGAAACAG,0.42
14,ACCGGAUGUGGUUUCCGGUCAGAUGAGUCCGUGAGGACGAAACAG,0.735
15,ACCGGAUGUGGUUUCCGGUCCGAUGAGUCCGUGAGGACGAAACAG,0.987
16,ACCGGAUGUGGUUUCCGGUCGGAUGAGUCCGUGAGGACGAAACAG,0.847
17,ACCGGAUGUGGUUUCCGGUCUGAAGAGUCCGUGAGGACGAAACAG,0.829
18,ACCGGAUGUGGUUUCCGGUCUGACGAGUCCGUGAGGACGAAACAG,1.07
19,ACCGGAUGUGGUUUCCGGUCUGAGGAGUCCGUGAGGACGAAACAG,1.3

row,Variant,self-cleavage
1,ACCGGAUGUGGUUUCCGGUCUGAUGAGACCGUGAGGACGAAACAG,0.809
2,ACCGGAUGUGGUUUCCGGUCUGAUGAGCCCGUGAGGACGAAACAG,1.13
3,ACCGGAUGUGGUUUCCGGUCUGAUGAGGCCGUGAGGACGAAACAG,0.849
4,ACCGGAUGUGGUUUCCGGUCUGAUGAGUCCGAGAGGACGAAACAG,1.1
5,ACCGGAUGUGGUUUCCGGUCUGAUGAGUCCGCGAGGACGAAACAG,1.12
6,ACCGGAUGUGGUUUCCGGUCUGAUGAGUCCGGGAGGACGAAACAG,1.19
7,ACCGGAUGUGUUUUCCGGUCUGAUGAGUCCGUGAGGACGAAACAG,1.02
8,ACCGGAUGUGUUUUCCGGUCUGCUGAGUCCGUGAGGACGAAACAG,0.277
9,ACCGGAUGUGUUUUCCGGUCUGGUGAGUCCGUGAGGACGAAACAG,0.39
10,ACCGGAUGUGUUUUCCGGUCUGUUGAGUCCGUGAGGACGAAACAG,0.338
11,ACCGGAUGUGUUUUCCGGUCUGAUGCGUCCGUGAGGACGAAACAG,0.433
12,ACCGGAUGUGUUUUCCGGUCUGAUGGGUCCGUGAGGACGAAACAG,0.335
13,ACCGGAUGUGUUUUCCGGUCUGAUGUGUCCGUGAGGACGAAACAG,0.64
14,ACCGGAUGUGUUUUCCGGUCUGAUGAGUCCGUGCGGACGAAACAG,0.584
15,ACCGGAUGUGUUUUCCGGUCUGAUGAGUCCGUGGGGACGAAACAG,0.83
16,ACCGGAUGUGUUUUCCGGUCUGAUGAGUCCGUGUGGACGAAACAG,0.724
17,ACCGGAUGUGUUUUCCGGUCUGAUGAGUCCGUGAGGCCGAAACAG,0.987
18,ACCGGAUGUGUUUUCCGGUCUGAUGAGUCCGUGAGGGCGAAACAG,1.12
19,ACCGGAUGUGUUUUCCGGUCUGAUGAGUCCGUGAGGUCGAAACAG,0.665

# Reference: the RNAGym collection of RNA variant scans (doi:10.7554/elife.80360)
